According to patent publication US20170327598A1 (published 2017):
Like-named read-outs stand apart in the source and are kept apart here. One block for each molecule: values may come before it.

What was measured:
[1] = target: commercially available anti-Stat3 antibody (Abcam, Cambridge, Mass.); assay: ELISA, antibody coated at 1 µg/mL, secondary antibody 1:5,000, Experiment 3
[2] = target: T1, active human TNF-α full length protein (human, UniProt P01375 77-233)
[3] = target: T1, active human TNF-α full length protein; remark: listed apart in the source
[4] = target: T1, active human TNF-α full length protein; remark: listed apart in the source
[5] = target: T1, active human TNF-α full length protein; remark: listed apart in the source
[6] = target: T1, active human TNF-α full length protein; remark: listed apart in the source
[7] = target: T1, active human TNF-α full length protein; remark: listed apart in the source
[8] = target: T1, active human TNF-α full length protein; assay: ELISA, wells coated with 0.5 µg/mL TNF-α, sdAb at 1 µg/mL
[9] = target: T1, active human TNF-α full length protein; remark: listed apart in the source
[10] = target: T1, active human TNF-α full length protein; remark: listed apart in the source
[11] = target: T1, active human TNF-α full length protein; remark: listed apart in the source
[12] = target: T1, active human TNF-α full length protein; remark: listed apart in the source
[13] = target: T1, active human TNF-α full length protein; remark: listed apart in the source
[14] = target: T1, active human TNF-α full length protein; remark: listed apart in the source
human STAT3 = human STAT3 (human, UniProt P40763 1-770, limits assumed); assay: SPR, Biacore 3000
human STAT3 (Biacore) = human STAT3 (Biacore) (human, UniProt P40763 1-770, limits assumed); assay: SPR
[15] = target: human KRAS (normal human KRAS, full protein) (human, UniProt P01116-2 1-188, limits assumed); assay: SPR, Biacore 3000
[16] = target: endogenous STAT3 of the murine 4T1 cell line (murine, UniProt P42227 2-770); assay: immunoprecipitation from 4T1 lysate, Western blot
STAT 2 protein [17] = target: T2, STAT 2 protein (UniProt P52630 1-851, limits assumed); assay: sandwich ELISA, STAT protein coated at 0.5 µg/mL
STAT 1 protein [18] = target: T3, STAT 1 protein (UniProt P42224 1-750, limits assumed); assay: sandwich ELISA, STAT protein coated at 0.5 µg/mL
T3 sequence (looked up): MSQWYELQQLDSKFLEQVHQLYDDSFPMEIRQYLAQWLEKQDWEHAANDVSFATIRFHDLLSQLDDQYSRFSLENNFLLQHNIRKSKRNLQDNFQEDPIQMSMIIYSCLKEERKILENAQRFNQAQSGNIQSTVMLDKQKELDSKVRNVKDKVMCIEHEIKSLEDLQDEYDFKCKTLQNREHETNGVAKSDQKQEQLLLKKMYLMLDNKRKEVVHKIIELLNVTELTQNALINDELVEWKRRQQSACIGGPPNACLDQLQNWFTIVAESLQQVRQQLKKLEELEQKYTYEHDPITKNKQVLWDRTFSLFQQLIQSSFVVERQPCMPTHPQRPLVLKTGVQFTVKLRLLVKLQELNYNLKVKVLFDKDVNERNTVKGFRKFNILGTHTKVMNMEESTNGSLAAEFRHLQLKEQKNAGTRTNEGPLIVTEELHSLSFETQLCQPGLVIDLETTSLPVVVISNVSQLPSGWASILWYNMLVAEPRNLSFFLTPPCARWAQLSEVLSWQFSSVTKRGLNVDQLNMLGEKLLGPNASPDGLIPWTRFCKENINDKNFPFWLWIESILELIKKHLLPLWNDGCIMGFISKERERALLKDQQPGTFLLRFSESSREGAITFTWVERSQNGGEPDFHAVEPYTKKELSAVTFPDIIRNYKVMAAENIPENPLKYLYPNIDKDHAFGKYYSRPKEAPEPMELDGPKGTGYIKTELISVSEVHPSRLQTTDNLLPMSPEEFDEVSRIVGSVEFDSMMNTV

STAT 5a protein [19] = target: T4, STAT 5a protein (UniProt P42229 1-794, limits assumed); assay: sandwich ELISA, STAT protein coated at 0.5 µg/mL
T4 sequence (looked up): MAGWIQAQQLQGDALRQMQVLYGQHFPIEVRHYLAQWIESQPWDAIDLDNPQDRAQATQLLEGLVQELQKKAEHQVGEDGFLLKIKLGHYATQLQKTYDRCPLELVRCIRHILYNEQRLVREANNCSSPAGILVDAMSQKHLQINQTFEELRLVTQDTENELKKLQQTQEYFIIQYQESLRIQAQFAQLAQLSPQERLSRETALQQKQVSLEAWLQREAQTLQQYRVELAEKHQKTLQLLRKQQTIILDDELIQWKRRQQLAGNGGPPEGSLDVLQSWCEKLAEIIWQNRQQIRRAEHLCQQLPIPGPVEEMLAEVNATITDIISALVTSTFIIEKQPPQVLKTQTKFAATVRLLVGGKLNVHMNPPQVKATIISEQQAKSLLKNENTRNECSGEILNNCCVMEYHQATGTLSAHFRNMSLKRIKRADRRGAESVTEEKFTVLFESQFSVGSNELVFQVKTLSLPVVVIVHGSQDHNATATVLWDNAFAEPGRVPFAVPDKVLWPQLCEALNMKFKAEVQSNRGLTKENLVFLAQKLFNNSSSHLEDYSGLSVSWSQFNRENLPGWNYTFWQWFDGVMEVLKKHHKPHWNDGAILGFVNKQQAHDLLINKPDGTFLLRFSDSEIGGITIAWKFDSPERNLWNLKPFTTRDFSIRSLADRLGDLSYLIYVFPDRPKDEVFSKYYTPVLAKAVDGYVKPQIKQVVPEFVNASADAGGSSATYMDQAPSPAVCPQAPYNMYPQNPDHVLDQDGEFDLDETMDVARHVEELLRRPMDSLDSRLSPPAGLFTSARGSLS

STAT 2 protein [20] = target: T2, STAT 2 protein; assay: sandwich ELISA, STAT protein coated at 0.5 µg/mL; remark: listed apart in the source
STAT 1 protein [21] = target: T3, STAT 1 protein; assay: sandwich ELISA, STAT protein coated at 0.5 µg/mL; remark: listed apart in the source
STAT 5a protein [22] = target: T4, STAT 5a protein; assay: sandwich ELISA, STAT protein coated at 0.5 µg/mL; remark: listed apart in the source
STAT 2 protein [23] = target: T2, STAT 2 protein; assay: sandwich ELISA, STAT protein coated at 0.5 µg/mL; remark: listed apart in the source
STAT 1 protein [24] = target: T3, STAT 1 protein; assay: sandwich ELISA, STAT protein coated at 0.5 µg/mL; remark: listed apart in the source
STAT 5a protein [25] = target: T4, STAT 5a protein; assay: sandwich ELISA, STAT protein coated at 0.5 µg/mL; remark: listed apart in the source
STAT 2 protein [26] = target: T2, STAT 2 protein; assay: sandwich ELISA, STAT protein coated at 0.5 µg/mL; remark: listed apart in the source
STAT 1 protein [27] = target: T3, STAT 1 protein; assay: sandwich ELISA, STAT protein coated at 0.5 µg/mL; remark: listed apart in the source
STAT 5a protein [28] = target: T4, STAT 5a protein; assay: sandwich ELISA, STAT protein coated at 0.5 µg/mL; remark: listed apart in the source

T2 sequence (P52630 whole entry): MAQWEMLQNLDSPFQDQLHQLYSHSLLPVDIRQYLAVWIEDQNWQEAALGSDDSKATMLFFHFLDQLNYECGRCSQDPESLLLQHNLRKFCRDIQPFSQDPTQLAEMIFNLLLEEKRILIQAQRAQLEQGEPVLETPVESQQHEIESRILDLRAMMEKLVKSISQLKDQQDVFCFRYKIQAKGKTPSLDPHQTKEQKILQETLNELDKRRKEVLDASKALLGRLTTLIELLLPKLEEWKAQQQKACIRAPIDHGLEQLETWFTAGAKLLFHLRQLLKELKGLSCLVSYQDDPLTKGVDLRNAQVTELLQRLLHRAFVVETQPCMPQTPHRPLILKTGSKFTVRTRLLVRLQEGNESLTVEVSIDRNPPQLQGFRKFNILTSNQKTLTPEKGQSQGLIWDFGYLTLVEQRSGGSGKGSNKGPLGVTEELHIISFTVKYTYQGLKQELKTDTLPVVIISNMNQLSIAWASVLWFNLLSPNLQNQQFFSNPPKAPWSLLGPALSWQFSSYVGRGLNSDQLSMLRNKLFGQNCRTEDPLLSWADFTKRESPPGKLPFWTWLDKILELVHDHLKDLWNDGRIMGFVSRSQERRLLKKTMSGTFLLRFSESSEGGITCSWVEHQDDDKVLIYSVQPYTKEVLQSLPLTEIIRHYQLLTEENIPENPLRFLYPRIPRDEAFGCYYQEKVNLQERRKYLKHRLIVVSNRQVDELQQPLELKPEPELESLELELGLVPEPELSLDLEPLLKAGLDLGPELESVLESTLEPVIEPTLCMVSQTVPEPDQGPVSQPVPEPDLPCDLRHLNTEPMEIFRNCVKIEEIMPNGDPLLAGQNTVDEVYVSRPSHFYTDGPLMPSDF
T1 sequence (P01375 77-233 limits assumed): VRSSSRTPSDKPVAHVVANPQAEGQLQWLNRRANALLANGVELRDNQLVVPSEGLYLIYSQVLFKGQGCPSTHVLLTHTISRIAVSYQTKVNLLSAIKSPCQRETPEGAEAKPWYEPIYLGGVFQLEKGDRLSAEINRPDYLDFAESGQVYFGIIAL
endogenous STAT3 of the murine 4T1 cell line, sequence (P42227 2-770 limits assumed): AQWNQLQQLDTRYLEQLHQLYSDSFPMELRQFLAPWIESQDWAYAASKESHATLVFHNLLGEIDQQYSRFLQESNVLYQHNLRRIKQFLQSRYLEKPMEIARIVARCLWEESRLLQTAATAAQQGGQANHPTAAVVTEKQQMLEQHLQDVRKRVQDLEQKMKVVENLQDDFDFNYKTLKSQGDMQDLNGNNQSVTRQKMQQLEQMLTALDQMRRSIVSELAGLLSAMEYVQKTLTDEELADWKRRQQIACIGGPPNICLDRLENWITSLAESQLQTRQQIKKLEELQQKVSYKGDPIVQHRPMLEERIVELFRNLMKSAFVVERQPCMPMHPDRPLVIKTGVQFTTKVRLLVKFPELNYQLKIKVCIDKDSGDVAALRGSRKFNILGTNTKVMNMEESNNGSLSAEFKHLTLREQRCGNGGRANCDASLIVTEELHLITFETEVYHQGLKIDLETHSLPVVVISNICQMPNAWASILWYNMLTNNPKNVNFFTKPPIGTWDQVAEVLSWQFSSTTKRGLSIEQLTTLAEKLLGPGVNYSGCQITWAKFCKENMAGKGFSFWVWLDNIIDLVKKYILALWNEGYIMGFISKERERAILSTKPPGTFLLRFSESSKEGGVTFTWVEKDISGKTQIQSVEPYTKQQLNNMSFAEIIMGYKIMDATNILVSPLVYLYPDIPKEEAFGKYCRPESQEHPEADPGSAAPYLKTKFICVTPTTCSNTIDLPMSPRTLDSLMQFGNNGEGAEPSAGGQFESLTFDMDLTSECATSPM

Molecule: his-probe (H-3) biotin labeled antibody
OD450 [1]: 0.018 OD450

Signal/Noise Ratio [2]: 2.1
Signal/Noise Ratio [3]: 5.9
Signal/Noise Ratio [4]: 3.7
Signal/Noise Ratio [5]: 1.6
Signal/Noise Ratio [6]: 7.5
Signal/Noise Ratio [7]: 3.2
OD450 [8]: 1.95 OD450
Signal/Noise Ratio [9]: 8
Signal/Noise Ratio [10]: 2.4
Signal/Noise Ratio [11]: 1.5
Signal/Noise Ratio [12]: 1.9
Signal/Noise Ratio [13]: 1.3
Signal/Noise Ratio [14]: 1.6
B1: anti-TNF-alpha VHH69 (SEQ ID NO:46) sdAb (VHH)
VHH: EVQLVESGGGSVLAGGSLRLSCVASGFTSRYNYMAWFRQAPGKEREGVATIGTASGSADYYGSVKDRFTISQDNAKNTVYLQMNSLKPEDTAMYYCAARTYGTISLTPSDYRYWGQGTLVTVSS

binding result (human STAT3): no binding (tested: 0-200 nM)
B2: anti-KRAS (G12D) (SEQ ID NO:2) sdAb (VHH)
VHH: EVQLVESGGGSVQTGGSLRLSCAVSGNIGSSYCMGWFRQAPGKKREAVARIVRDGATGYADYVKGRFTISRDSAKNTLYLQMNRLIPEDTAIYYCAADLPPGCLTQAIWNFGYRGQGTLVTVSS

binding result (human STAT3 (Biacore)): no binding
B3: anti-KRAS (G12D) (SEQ ID NO:2) sdAb (VHH)
VHH: B2 VHH

Kd [15]: 126 nM
B4: anti-STAT3 VHH13 (SEQ ID NO:3) sdAb (VHH)
VHH: HVQLVESGGGSVQAGGSLRLSCAASGANGGRSCMGWFRQVPGKEREGVSGISTGGLITYYADSVKGRFTISQDNTKNTLYLQMNSLKPEDTAMYYCATSRFDCYRGSWFNRYMYNSWGQGTQVTVSS

binding result [16]: binds
B5: anti-STAT3 VHH13 (SEQ ID NO:3) sdAb (VHH)
VHH: B4 VHH

Mean OD450 (STAT 2 protein [17]): 0.076 OD450
Mean OD450 (STAT 1 protein [18]): 0.122 OD450
Mean OD450 (STAT 5a protein [19]): 0.158 OD450
Mean OD450 (STAT 2 protein [20]): 0.015 OD450
Mean OD450 (STAT 1 protein [21]): 0.056 OD450
Mean OD450 (STAT 5a protein [22]): 0 OD450
Mean OD450 (STAT 2 protein [23]): 0.007 OD450
Mean OD450 (STAT 1 protein [24]): 0.024 OD450
Mean OD450 (STAT 5a protein [25]): 0.017 OD450
Mean OD450 (STAT 2 protein [26]): 0 OD450
Mean OD450 (STAT 1 protein [27]): 0.015 OD450
Mean OD450 (STAT 5a protein [28]): 0 OD450
B6: STAT5-31 (SEQ ID NO:83) sdAb (VHH)
VHH: EVQLVESGGGSVQTGGSLRLSCAASGFPFSSHVMGWFRQAPGKKREGVAAISVDSGSTWYADSVKGRFTISLDSAKNTLYLQMNSLKPEDTAMYYCATRRGVILTLSPETYDYWGQGTQVTVSS

Signal/Noise Ratio [2]: 1.4
Signal/Noise Ratio [3]: 1.7
Signal/Noise Ratio [4]: 1.5
Signal/Noise Ratio [5]: 1.1
Signal/Noise Ratio [6]: 1.9
Signal/Noise Ratio [7]: 1.5
OD450 [8]: 0.005 OD450
Signal/Noise Ratio [9]: 2
Signal/Noise Ratio [10]: 1.4
Signal/Noise Ratio [11]: 1.1
Signal/Noise Ratio [12]: 1.3
Signal/Noise Ratio [13]: 0.9
Signal/Noise Ratio [14]: 1.1
B7: anti-TNF-alpha VHH62 (SEQ ID NO:47) sdAb (VHH)
VHH: QVQLVESGGGPVQAGETLRLSCTASGFTFAEADMGWYRQAPGHECELVSTITTEGITSEASSYYADSVRGRFTISRDNAKNMVYLQMNSLKPEDTAVYYCAPDPYAYSTYSDYCSWAQGTQGTLVTVSS
